Data as given in the NTF2 design screens of Basanta et al. (2020).

Experiment: protease stability score; higher = more stable; yeast display proteolysis, trypsin and chymotrypsin;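 also: relative to predicted unfolded state with 0 unfolded-like and 1 meaning tenfold more protease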

Sequence	protease stability score
SEEEEEMKLAKRLLENISETGDERELEELLDPNVRIVIGDKHEHGRESVEHWFRRIDHIKHFEIERVTVFDGRVEMHGRMVGTINGKHKNTRITLIAVKINGRWVLQHRILE	0.245
SEEEEEMKRFIEDELRAWRTGDEDLIHEQFDPHVRVIIGEFEYHGRELLHEMFNRIDHIEHIELRIHHVHLQGDKAHLEVEEREHGVFDGKRINVSREINIIIHKIDGRWVHTIIIIE	0.606
SEEEEEMRFFMEVWIHDLRTGDFESLHKNADPRTRVEINGVELHGREHFTEWAERIKGAKFEVKDFKIQGDKVILHGKFSVNGVEHEMTVIFLKVNGRWLQESMTLK	0.603
SEEEEEMRHHLEIFIESLRTGDEDEIANNADPNWINVVGDKENIGREHILTWYERFYEEIRIHDMKIRHVDVQGEKMRVEGELNKDVNGREIRTEHRWEFDIVNGRLRSLQVRVK	0.919
SEEEEEMRRMVDDIFRMLLTGDWRDFLHLADPTVRLHIGDKQAHGRTQVFELLKLYLHEWREKTIVHESIHHINGVSIIHGSLRVRINGQEHEFKVTWNIFIYDGRLKSMEIRFH	0.337
SEEEEEMRRWFEILIRAIRTGDEHVLKRLIDPDAQEDVNGKRIHGMEDMSRLLSEMRIKSWEIRRSHFVGNKIELDGHRRGHVNGRDIDDHVIIHILKIDGKWTLHRVEVS	2.12
SEEEEENRKRVEFFKKVWETGDEHSMEELMDPNVRLRIVVNGRHEHYHGREEVVHILQDELRKIKNVKVNLKRIDVVDGRAHSDIHVDQGDWRMKMEVILIKVNGRWRMKELELHVI	1.78
SEEEEESKIISKLAIEETKTGDFESIRRNADPRARSDVDGQEMHGRELLEHIFRWIIEKAGVDKVETDLHELRIVGDKVHVRTKLHIGDWRIEVEIIVRKINGRWHLHSMRFSLR	0.646
SEEEEESKYALKIERELLYTGDWHLLTRYADPDVRATINGQKVIGRELFSHIFLEELDKLGMRIHDIRETHWTLINGVAIHHMRINTRQGEKSYHTEMNLISLKVDGRWLIQSYELG	0.523
SEEEEESRFMFELIEHFLKTGNWEMISKLADPNMKTVINGKTYHGREMLIHEFEKLGADHITIHDYKDIDGQVIIHTRIHVGDKTYDVVIISEKVDGKWHLKEIHIR	1.99
SEEEEESRHAIEMTLKTLITGDEHMIQDLADPRAQTHYGDKEYHGREELFRLMHEFILKIKNLRIELHDHHIQGDKIILDVRWRFDGKSFHVTIESRKINGRWLHHIFIVK	0.582
SEEEEESRKMLELFKELLETGDEEDMTKLADPNVRIIYDGKHLHGRHVAHDVWHELSNRVKNAKFHFDVIKIVGEKVILEITIHVDGQDIESSTILDKFNGKWYMEEVFFH	1.92
SEEEEESRRFMQHMSRSLATGDWRQVRNLLDPHVRTDINGRDLHGWRDYVRHVLELGIKHIHIEDIRLVGDYAHIDGEMDVNGRDVRVHILVLKINGRWVIESEELK	0.427
SEEEEETEEVADLHLETLKTGNEDLLEDLLDPNVRVIVNGKHHIGRHFLLKWVTEFGIKHFELKRREIDIQGEKADIHIQGNMYFNGRTVRAHIHQEVTKFDGRWFNHRVEIEFK	1.84
SEEEEETRKFAHDLVNIHRTGDERKINDLFDPHVRVHIGNKEIVGRELFARWMHEFLLKHGFTEEIRIDDVDLYGNKAHIDGTLIIRINGVEHRHRVELIVNKINGKWLMEYVRVR	1.6
SEEEEEVEEFIHIFTESLKTGDEHSLRRLVDPHVRIEWNGRTHHGWQMFTRLVREARVEIVVRDIRVINGRAIINGELRYEQGDKTFTTEIEIIVVKFDGKWHMHHVRYK	2.21
SEEEEEVHKFMEDLARAYLTGDEKRFRELVDPNVKSNIDGQTIHGREELTKWVSDSAKKYGVDHLEMRVRTINIQGNKAHMDGEIVLEYGDKRVSRQVEIVVTKINGQWLLEREHIH	1.88
SEEEEEVLRFLKEWIHRLRTGDEDILRELLDPDVRIEAENRESHGREEATRLLSEIRFEHFFIESIKVQGNKVSIHGRVHGVINGKKFKHHIHIILVKVNGKWQFREIDIH	-0.107
SEEEEEVVRIWKLLLELEKTGNEENIARLADPHVRTDINGQESHGREHLAKLVRHLFHEIRIKDFKIRRLELQGEKLIVDGELHGNYDGQHEVVDTEIHIYVVNGKLKSITVRHH	1.47
SEEEEEWHRLIEHWMRKWLTGDEERLARLADPNVRLEDENHQSHGREEMARFLHEKILKLGVDHTRIRHYRDQGEYLHLDFEVEINGRRVRVKVHVVIIDGVVKELKFHVE	1.19
SEEEEFAERLVRMFEEELATGDEHKLQRLLDPHVKVEINGREIIGREEWTNHLDHIRLELHDTKLREVRVQGDKIHVHGKTDIIIKVGDKSERHHVEVLFIIKKINGRWILERVHVR	1.13
SEEEEFARQMMEHFLKNFITGNEELFKENLDPDVRIIIVVNGREFENVGREHFWHHFRRSFEELGVKHLHLKDIRVINGRLFLFAEIEIGDKRVELHFLVLKVDGKWVIEELHIKFL	2.32
SEEEEFLEKLMREFVHDLLTGDEDRIRELADPHVKFEMDVNGVRFRAHGREEMLRELRRFWKEIRVKHIQTHDVKNVGDKAHSDVREVVEVDGREERHESEIIVVTINGRMQSVVLIFK	1.52
SEEEEFSHNLLNFMLHVIHTGDFDLLLDLMDPDTRVDINGKRHHGRDAMRIWVTLLGIERVETDVHHISIYGDKARIDGRVHYNGKTQRFEIHSRKIDGKWLNTEIKWD	1.09
SEEEEFTKLLLELLAHALRTGDESMLQYLADPNVRIDINGKELHGMEVLTHWLRRIDHIDSFFHIDHIDLVDGKLKVNGRTELIVRQGDKSHHSEWDVRIISDKVNGRWLLESISFK	2.08

Sequence	protease stability score
SEEEEFVELAVRLFLETMRTGDEKDINRLADPHTRNIVNGRDIIGREELTRQLHEILHFFKNVQVHIEEVRWQGNYIVLKILWNFDGQTMEVHVYARKIDGRWVETEFEFR	2.08
SEEEEFVEVAIKIVQEIRKTGDEDEQERLADPHVRFDINGQDIHGREKWTKWVHEIRVRMKHVRERHITVINGKAHIHGEVDVHFHVNGVELRIDTKYTVVIEKVNGRWRLREVHLV	2.22
SEEEEFWKHIAKVMLDLVTTGNEDLFMKMADPNTKSEFNGRTVVGRERIAEILKKFKNITIIIHHIDIQGEKVRIHGRVLIGDKEIEDDWELVVVDGKIQRLHFEHV	1.29
SEEEEHAEELIRLELEALLTGDEEHMARNLDPNVRININGKDIVGREEVSRFLKHLRVRSIHIEIKDFRVIGNWLHVDGRVHFHGHFDGRKIDSTTQFHMILVKINGRWFIHSVKFQ	2.6
SEEEEHAKHIARLWMESFYTGDEHHMSHLLDPNVRIIIEIGDKSDEFHGREETVKWVRKYLREMRLKNFEIHDQRVFNGVANDDTIVHGNVDGRERNIRTHIIIVVVNGRVKEVKVEVK	1.6
SEEEEHEKEVIKRIREAMLTGDEDTLRHLLDPNVRVNIDGVEIVGMEMILRHLREIRVSIKDLKVTHVRSVNGRVEADTRSHLIIIIGDKKYEEESETRFFILKIDGRWLLTTIEFK	1.49
SEEEEHIHRLARLYWRLWETGDEETLAHLMDPNVRQIIHVGDKEFHNVGREKIIKVTKHVFEKLGVKHIKIRDMRVINGVVEIDTEVNVDGRTFDTRIKVLIVDGRIHELRWIVE	1.65
SEEEEHIREFWNLLLRAYRTGDEKQLRELFDPHVRIHINGKEIHGMEDMIRHIREIRVIITHLELREFSFFNGRAHVDGERDLRITVGEFHRSHRTDVTIITEKVNGQWRIEEVRVH	1.46
SEEEEHIREHSERFIEAWKTGDWEELSRMIDPHARIVVNGKEVHGRSDIERMLRETMEKMGANHIQEESVHYQGNKIILHETVNVGDKRLRLTIVIHVVNGKVRRVEFHIEQR	2.17
SEEEEHLDHALKNIIDLIRTGDENLQRELFDPRVRLVVGDKEFHGWETVVHRLREMRFKDFHVRRERIVGDKVHIDVEVNGNVDGRDDVMRMEIRIDKVNGQWRTKNVILN	2.05
SEEEEHLLKWFEELITLLLTGDEDRLSELMDPNVRIEIGDKTLVGMEWANHDYTRKIRERGWRIEIIIRELRAQGDKVRARTELRIRFDGREITYETEMILVVVNGRFKRIETRVH	1.46
SEEEEHSKFLAEILLELMRTGDWRTFEELVDPNARLEIIQGDFTIDIHGREEVSKFLKNEVEQFKNMRVELHRQSAQGNKLHIDGRLKVGDKSHELRIHINVINGKLKQVKIEID	1.72
SEEEEHSLKIARQWVENVLTGDEHLLRKLADPDTRIIVDGRHYHGWRQEHKVLEEIRIHDMFEKDVEVQGDKIYMNGTVDGEINGKRTRSDVDLIILVVDGRIKQVEINVH	1.12
SEEEEHTHRISRRFWRFLVTGDEDALLKNADPHVRLVIGDKHSHGRENFKRLLREWLEELGAKHLHIRDLEVQGNKVHTHGEMTVNGRNIETHIELVVIDGRHHSMEFRIG	-0.021
SEEEEHTRHMYELFWRILHTGDEKSFHELADPNVLLRVGDKNFHGREEAERFLHEYWERYKNMRIEMKTFDFQGNKVHSEGVININGVKIRSELELVVFDGRLHSVIVRHR	2.43
SEEEEHVWEWAKLVIDLWQTGNEEIFKELVDPNARSEFDGVTIHGMHNDLKRIIEELREIRVRIEIHSVRVIDGVLDVDVKLRLHIGDKQREIKIRLHIVVIDGKLKSVHIDKH	1.9
SEEEEHWHTLAHMIVHWWLTGDEDAFMELADPHVRFEQGDYESVGMENVRERWRMIKEEIRIHEIRVHDVRFINGVIEVDTRLIRTFNGVREEVDYRVEIVEYNGRVKRVKLEIR	1.33
SEEEEIAERFKKLMFEATHTGDWHTFMRLADPHVRVDINGKERHGREHWVEHERRLGIDHTDIRIRREREINGVMHIDSQLILHFNGVTLTLDHKLILKKVDGKWILHELKVD	-0.054
SEEEEIAHRFRKTVVHALLTGDEDRLRELVDPNYRILIGDKELHGWKSMSEFTHEWRIDHVEIERESVFDGVAHHDIRVDTTVNGKRDTRIVRIIIQKVNGKWVIHSMEIH	0.53
SEEEEIARELSEEVYRHWHTGDFRMLERYFDPHVRIIYDGRDYHGREIASTVLRETNKEWRTESMEVKDVKFINGKLHVDISSDTLYNGKRVSTSIKIVSVKVDGQWVIHQMKYV	1.1
SEEEEIARKIADIFFKVMQTGDEDHWLELFDPHTRFESDFNGRTVEIHGRERVREWKRKLEEDLGLTRFEIILRDSHVVNGVIHMDIEVRINGKTRRWIIDLIVINGRVKSLRVEIR	1.15
SEEEEIARRFISVWLHAFHTGDEKRLEEMIDPHVRVDYNGVEIIGRENWIEFMLTIMRNLGFNHIRVELDHLDFQGDKMRLETTLKRKVNGREERIDTRIHVKKIDGQWIFTHELYK	0.795
SEEEEIIESFMKELRESHKTGDPTAIDRLADPNTRLLVNGKQHHGWEHILRFLEDLGANHIELEFRDSHLIGDKMHIHGQLVMHINGQRVTIKTHMILSKINGRWYLEHIELR	1.81
SEEEEILDKLVKHFIHAFRTGDEDRLNELLDPDAKLVIEYGDKRLEHHGRENVLRAWVELIERIKGVRLEWKEIRPQGDFVESRTQLIVNGREVETEVEIIMFNGRFREFTVRIR	2.11
SEEEEILETVAKKMVDILETGDEDKLTRLADPDVRHRIDVDGRDLSYHGREEINRFMHHWKREWRIDSITVHRVHVINGQIHIDIEVRETVGDKHVIVRRELIIVIVDGRVKRVEIIFR	0.253
